These results are taken from article PMC8960791 (Communications Biology, 2022).

The assay concerns the target soluble HLA-E-VL9, HLA-E*01:03 heavy chain refolded with β2-microglobulin and synthetic VL9 peptide (Homo sapiens, HLA-E*01:03, strain).

B1: CA177 (antibody, V domains shown)
VH: RCSCRSRAPGLVKPSETLSLTCTVSGGSISSYYWSWIRQPPGKGLEWIGYIYYSGSTNYNPSLKSRVTISVDTSKNQFSLKLSSVTAADTAVYYCASHDYTDHAAGYWGQGTLVTVSS
VL: not shown
With B1, the binding result was “binds”.

B2: CA176 (antibody, V domains shown)
VH: QVQLVESGGGVVQPGRSLRLSCAASGFTFSSYGMHWVRQAPGKGLEWVAVISYDGSNKYYADSVKGRFTISRDNSKNTLYLQMNSLRAEDTAVYYCAKDEGSSDFWSGYYASFDYWGQGTLVTVSS
VL: DIQMTQSPISLSASVGDRVTITCRASQDISNYLTWYQQKPGKAPKLLIYAASSLQSGVPSRFSGSGSGTDFTLTISNLQPEDFATYYCQQNYSYPCTFGQGTKVEIK
Consider B2, for which the binding result was “binds”.

B3: CA180 (antibody, V domains shown)
VH: QVQLVQSGAEVKKPGASVKVSCKASGYTFTSYGISWVRQAPGQGLEWMGWISAYNGNTNYAQKLQGRVTMTTDTSTSTAYMELRSLRSDDTAVYYCARDLGYSSSWYTSNWFDPWGQGTLVTVSS
VL: QSALTQPASVSGSPGQSITISCTGTSSDVGSYNLVSWYQQHPGKAPKLMIYEGSKRPSGVSNRFSGSKSGNTASLTISGLQAEDEADYYCCSYAGSSTVVFGGGTKLTVL
With B3, the binding result is “binds”.

B4: CA178 (antibody, V domains shown)
VH: QVQLVQSGAEVKKPGSSVKVSCKASGGTFSSYAISWVRQAPGQGLEWMGGIIPIFGTANYAQKFQGRVTITADESTSTAYMELSSLRSEDTAVYYCARDYGGSYYYEYFQHWGQGTLVTVSS
VL: not shown
In the case of B4, the binding result is “binds”.
